Source: US20240190989A1 (BEIGENE SWITZERLAND, published 2024)

What was measured:
[1] = target: T1, mouse CD137 (recombinant protein, SPR) (mouse, UniProt P20334 24-187, limits assumed); assay: SPR
T1 construct: also called murine CD137
T1 sequence (looked up): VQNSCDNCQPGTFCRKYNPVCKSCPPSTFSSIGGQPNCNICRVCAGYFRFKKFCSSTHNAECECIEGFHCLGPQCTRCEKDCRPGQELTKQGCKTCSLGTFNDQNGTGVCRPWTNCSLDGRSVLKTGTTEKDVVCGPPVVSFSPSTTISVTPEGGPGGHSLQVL

human CD137 ECD-mIgG2a = target: T2, human CD137 ECD-mIgG2a (human); assay: SPR, Human CD137
T2 construct: ECD 24-183 of huCD137 fused to mouse IgG2a Fc; also called huCD137-mIgG2a; huCD137

cyno CD137 ECD-mIgG2a = target: T3, cyno CD137 ECD-mIgG2a (monkey (Macaca mulatta gene; called …); assay: SPR, Monkey CD137
T3 chain: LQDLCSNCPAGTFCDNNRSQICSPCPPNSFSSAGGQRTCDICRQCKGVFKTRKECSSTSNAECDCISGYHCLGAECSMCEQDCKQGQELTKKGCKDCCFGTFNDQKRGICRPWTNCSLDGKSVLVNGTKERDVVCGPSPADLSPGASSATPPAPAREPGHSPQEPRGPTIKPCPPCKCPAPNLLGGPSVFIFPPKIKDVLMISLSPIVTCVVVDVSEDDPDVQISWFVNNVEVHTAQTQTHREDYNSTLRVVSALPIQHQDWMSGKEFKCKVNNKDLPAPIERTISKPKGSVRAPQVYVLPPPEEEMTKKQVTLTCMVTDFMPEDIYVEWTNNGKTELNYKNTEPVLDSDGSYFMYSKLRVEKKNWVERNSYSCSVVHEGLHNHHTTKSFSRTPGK

FcγRIIAH131 = target: T4, FcγRIIAH131 (UniProt P12318 34-218); assay: ELISA-based FcγR binding, luminescence read-out (RLU)
T4 sequence (looked up): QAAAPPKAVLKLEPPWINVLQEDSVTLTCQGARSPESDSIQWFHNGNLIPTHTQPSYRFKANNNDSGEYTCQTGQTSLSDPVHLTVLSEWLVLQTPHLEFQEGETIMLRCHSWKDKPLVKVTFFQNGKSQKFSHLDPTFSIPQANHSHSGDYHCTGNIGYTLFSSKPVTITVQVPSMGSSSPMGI

FcγRIIIAF158 = FcγRIIIAF158 (UniProt P08637 17-208); assay: as above
Sequence of FcγRIIIAF158 (P08637 17-208): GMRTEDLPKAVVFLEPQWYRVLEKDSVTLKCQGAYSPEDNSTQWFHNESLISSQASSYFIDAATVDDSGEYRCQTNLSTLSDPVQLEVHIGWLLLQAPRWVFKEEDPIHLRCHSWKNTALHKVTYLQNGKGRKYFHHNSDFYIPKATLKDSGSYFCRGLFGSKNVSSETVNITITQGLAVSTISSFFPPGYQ

FcγRIIIB = FcγRIIIB (UniProt O75015 17-200, limits assumed); assay: as above
Sequence of FcγRIIIB (O75015 17-200 limits assumed): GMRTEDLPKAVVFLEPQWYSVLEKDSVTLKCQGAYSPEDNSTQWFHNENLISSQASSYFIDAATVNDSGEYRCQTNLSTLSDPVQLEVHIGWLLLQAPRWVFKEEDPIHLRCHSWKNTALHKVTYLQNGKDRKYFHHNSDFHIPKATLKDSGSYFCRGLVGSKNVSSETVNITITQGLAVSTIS

B1: BE-146 (CEAxCD137 multispecific antibody) (bispecific antibody, human IgG1, kappa)
heavy: QVQLVQSGAEVKKPGASVKVSCKASGYIFTSYYLHWVRQAPGQGLEWIGYINPQTGKTSYAQKFQGRVTMTRDTSTSTVYMELSSLRSEDTAVYYCAREYGNYNYPLDYWGQGTLVTVSSASTKGPSVFPLAPSSKSTSGGTAALGCLVKDYFPEPVTVSWNSGALTSGVHTFPAVLQSSGLYSLSSVVTVPSSSLGTQTYICNVNHKPSNTKVDKKVEPKSCDKTHTCPPCPAPPAAGPSVFLFPPKPKDTLMISRTPEVTCVVVDVSHEDPEVKFNWYVDGVEVHNAKTKPREEQYNSTYRVVSVLTVLHQDWLNGKEYKCKVSNKALAAPIEKTISKAKGQPREPQVYTLPPSREEMTKNQVSLTCLVKGFYPSDIAVEWESNGQPENNYKTTPPVLDSDGSFFLYSKLTVDKSRWQQGNVFSCSVMHEALHNHYTQKSLSLSPGKGGGGSEVQLLESGGGLVQPGGSLRLSCAASGFTVSAEDVGWVRQAPGKGLEWVSAILDKGGSTYYAESVKGRFTISRDNAKNTLYLQMSSLRAEDTAVYYCARIVYHAGGGVTFDTRGQGTQVTVSS
light: DIQMTQSPSSLSASVGDRVTITCRASENQYGYLAWYQQKPGKVPKLLIYNYKNLVEGVPSRFSGSGSGTDFTLTISSLQPEDVATYYCQHHLGTPYTFGQGTKVEIKRTVAAPSVFIFPPSDEQLKSGTASVVCLLNNFYPREAKVQWKVDNALQSGNSQESVTEQDSKDSTYSLSSTLTLSKADYEKHKVYACEVTHQGLSSPVTKSFNRGEC
notes: Module ratio 2:2, Fc null version of huIgG1; copies: 2 + 2
[1]
  binding result: no binding
Human CD137 ECD-mIgG2a
  Kd: 36.2 nM
  koff: 0.00469 s⁻¹
  kon: 130000 M⁻¹ s⁻¹
Cyno CD137 ECD-mIgG2a
  Kd: 15.9 nM
  koff: 0.00266 s⁻¹
  kon: 167000 M⁻¹ s⁻¹
FcγRIIAH131
  binding result: no binding (tested: not shown)
FcγRIIIAF158
  binding result: no binding (tested: not shown)
FcγRIIIB
  binding result: no binding (tested: not shown)
